Results on 1 molecule are retold here after paper PMC6393306.

Like-named read-outs stand apart in the source and are kept apart here.

Series [1] deals with T1, GEN1 1-527 (dimer) (Homo sapiens, UniProt Q17RS7 1-527).
T1 sequence: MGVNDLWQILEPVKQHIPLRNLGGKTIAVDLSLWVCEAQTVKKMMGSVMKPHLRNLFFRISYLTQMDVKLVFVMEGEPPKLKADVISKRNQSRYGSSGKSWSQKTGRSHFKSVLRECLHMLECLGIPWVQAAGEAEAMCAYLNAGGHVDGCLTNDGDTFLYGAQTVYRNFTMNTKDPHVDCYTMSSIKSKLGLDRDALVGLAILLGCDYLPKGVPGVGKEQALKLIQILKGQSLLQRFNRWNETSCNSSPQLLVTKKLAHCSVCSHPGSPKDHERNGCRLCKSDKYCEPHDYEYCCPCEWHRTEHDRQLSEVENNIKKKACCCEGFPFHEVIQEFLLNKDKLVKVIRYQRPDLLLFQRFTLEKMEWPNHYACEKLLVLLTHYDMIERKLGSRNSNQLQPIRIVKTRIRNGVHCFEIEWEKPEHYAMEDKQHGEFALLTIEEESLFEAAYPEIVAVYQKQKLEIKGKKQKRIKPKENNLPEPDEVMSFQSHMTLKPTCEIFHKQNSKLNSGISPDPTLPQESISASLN
The experiment in a line: EMSA. (Mobility shift assays separate free from complexed probe on a gel.)

Series [2] has as its target T1, GEN1 1-527 (dimer). Description: EMSA. The source holds these as a separate data set.

B1: X0 (Cy5, EMSA) (structured_DNA)
DNA 1: ACGCTGCCGAATTCTACCAGTGCCTTGCTAGGACATCTTTGCCCACCTGCAGGTTCACCC
DNA 2: GGGTGAACCTGCAGGTGGGCAAAGATGTCCATCTGTTGTAATCGTCAAGCTTTATGCCGT
DNA 3: ACGGCATAAAGCTTGACGATTACAACAGATCATGGAGCTGTCTAGAGGATCCGACTATCG
DNA 4: CGATAGTCGGATCCTCTAGACAGCTCCATGTAGCAAGGCACTGGTAGAATTCGGCAGCGT
B1: the Kd in the series with GEN1 1-527 (dimer) [1] worked out at 23.4 nM; in the series with GEN1 1-527 (dimer) [2], 6.23 nM.

The term Kd denotes the concentration at which binding is half-saturated. The low end stands for a tighter complex, the high end for a looser complex.
